# Source: the supplement of paper PMC9170038
# System: MS2 coat protein
# Assay: apparent KD of MS2 coat protein; designed switch direction (-1 OFF switch, 1 ON switch): 1; higher = weaker reporter binding
# Summary of the method: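 Normalised cluster fluorescence was curve-fitted, and each design's median over clusters is its apparent KD. Before this, SNAP-549-labelled MS2 coat protein was titrated from 0.7 or 1.5 nM, doubling to 3 µM, over RNA switches transcribed on Illumina chips by stalled E. coli RNA polymerase. Titrations had no input, 200 uM small-molecule ligand, or an oligonucleotide input, and steps lasted 0.8–1.5 h (lowest) to 10–20 min (highest).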
# [1] = input ligand: microRNA oligo, concentration not stated
# [2] = Eterna round: R95, input ligand: microRNA oligo, concentration not stated
# [3] = Eterna round: R95, input ligand: FMN 200 uM
# [4] = Eterna round: R95, input ligand: none
Sequence,apparent KD of MS2 coat protein (input ligand: FMN 200 uM) [µM],apparent KD of MS2 coat protein [1] [µM],apparent KD of MS2 coat protein (input ligand: none) [µM],apparent KD of MS2 coat protein [2] [µM],apparent KD of MS2 coat protein [3] [µM],apparent KD of MS2 coat protein [4] [µM]
"GCGAGCGUACUUGCUACAUGAGGAUCACCCAUGUUCGUUGGACAGGAUAUGGUACCGUUUCGGUACCAGAAGGGUUCAUCAUGU [JL SSNG3 3.75] (Eterna round: R96, puzzle: Same State NG 3)",0.355,0.188,0.278,–,–,–
"GCGGUCUGACAUGAGGAUCACCCAUGUGGAAUAAAUACGGGUUAGGAUAUCUUGAGGAUCACCCAAGAGAAGGGAUGGACCGCU (Eterna round: R96, puzzle: Same State NG 3)",0.0321,0.0228,0.0384,–,–,–
"GCUACCAAUGAAGCCAACAUGAGGAUCACCCAUGUAUGUUGGCAGGAUAUCGAUUGCAAAGCGAUCGAGAAGGGCUAAGGUAGC [Mat - Same State NG 3 - JL Mod - D87] (Eterna round: R96, puzzle: Same State NG 3)",0.107,0.12,0.177,–,–,–
"GCUAGAAUAAAAGCCAACAUGAGGAUCACCCAUGUAUGUUGGCAGGAUAUCGUAUGCAAAGCAUACGAGAAGGGCCAUACUAGC [Mat - Same State NG 3 - JL Mod - D24] (Eterna round: R96, puzzle: Same State NG 3)",0.0498,0.0967,0.121,–,–,–
"GCUAGUAUUAUUGUCAACAUGAGGAUCACCCAUGUAUGUUGGCAGGAUAUCGUUUGCUUUGCAAACGAGAAGGGCUAAACUAGC [JL SSNG3 1.04] (Eterna round: R96, puzzle: Same State NG 3)",0.0612,0.145,0.231,–,–,–
"GCUCGACGUAUGGCCUACAUGAGGAUCACCCAUGUGACUGGGCAGGAUAUCUAAAUGCAGAAUGUAGAGAAGGGCCCGUCGAGC [SameState NG3 #49] (Eterna round: R96, puzzle: Same State NG 3)",0.163,0.0996,0.188,–,–,–
"GCUCGAUGAGAGUCCUACAUGAGGAUCACCCAUGUAUGUGGGCAGGAUAUCUACAUGCAGAAUGUAGAGAAGGGCCCGUCGAGC [SameState NG3 #57] (Eterna round: R96, puzzle: Same State NG 3)",0.0352,0.106,0.187,–,–,–
"GCUCGUAUGAUGACCGACAUGAGGAUCACCCAUGUAUGUUGGUAGGAUAUCUAUAUUAAGGAUAUAGAGAAGGGCCGAACGAGC [SameState NG3 #15] (Eterna round: R96, puzzle: Same State NG 3)",0.0265,0.0336,0.0401,–,–,–
"GCUGCAAGGGCAGGAUAUGGGUUCAGAGCGGAAGUGCGCUUUGAUACAUGAGGAUCACCCAUGUCCCAGAAGGGCCCAAACGGC [Beanti] (Eterna round: R96, puzzle: Same State NG 2)",0.0173,0.0993,0.123,–,–,–
GCUUCACAUGAGGAUCACCCAUGUCUUCGGAGUCGAGGAUAUGGUCACUGUAAACAGUGGCCAGAAGGCGAGGAGC [SS1 - Son of Teenbexe v7] (puzzle: Same State 1),–,–,–,0.0464,–,–
"GGAAUAUGAUGUUACAUGAGGAUCACCCAUGUAGUGACAACUAAGGAUAUCUGAAAAGAAGGAGAGGAGAAGGUAGGAUCAUAA [AK SSNG3-V2-14.1] (Eterna round: R96, puzzle: Same State NG 3)",0.0257,0.0231,0.036,–,–,–
"GGAAUAUUUACAGGAUAUGAGUUGUAAAGUCGAUCAGAAGGGUAGGUGUCUUGCACGGUGUGUUACAUGAGGAUCACCCAUGUU [SameState NG1 #21] (Eterna round: R96, puzzle: Same State NG 1)",0.156,0.116,0.128,–,–,–
"GGACGUCAUCUCACUGAUUAAACAUGAGGAUCACCCAUGUCACAGGAUAUGAGUCCGAUUAGGACUCAGAAGGGUGUGACGUCC [Fiskers NG3ss - 45] (Eterna round: R96, puzzle: Same State NG 3)",0.0207,0.0146,0.0229,–,–,–
GGAGAACAUGAGGAUCACCCAUGUGAGCGGUAGCUAGGAUAUGCGGGAAGGAAGAGAGAAGCAGAAGGAGUCGGUA [JR_SS1_Sub033] (puzzle: Same State 1),–,–,–,0.0342,–,–
GGAGAACAUGAGGAUCACCCAUGUGGAUGAGCGCUAGGAUAUGCGGGAGGGUGAAGAGAAGCAGAAGGAGUAGAUA [JR_SS1_Sub034] (puzzle: Same State 1),–,–,–,0.0996,0.0639,0.18
"GGAGCCAAGGCAGGAUAUUCAUAUUAAUAACACAUGAGGAUCACCCAUGUGGCCAGAAGGCCAAGGGAGAAGGGCCAUGGCUCG [Xeonanis - 13 mod11] (Eterna round: R96, puzzle: Same State NG 2)",0.0221,0.0654,0.159,–,–,–
"GGAGCCGAUACUGAGGAUAUUCAUAUUAAAACAUGAGGAUCACCCAUGUAGGCCAGAAGGCCUUGGGAGAAGGCAGAUCGGCUCC [Biseusra - 4] (Eterna round: R96, puzzle: Same State 2)",0.021,0.207,0.358,–,–,–
GGAGCCGAUACUGAGGAUAUUCAUAUUAAAACAUGAGGAUCACCCAUGUAGGCCAGAAGGCCUUGGGAGAAGGCAGAUCGGCUCC [Biseusra - 4] (puzzle: Same State 2),–,–,–,0.301,0.0195,0.45
GGAGCCGGCACUGAGGAUAUUCGUAUUAAAACAUGAGGAUCACCCAUGUAGGCCAGAAGGCCUUGGGAGAAGGCAGGUCGGCCCG [Bibimoar - 5] (puzzle: Same State 2),–,–,–,0.0339,0.0125,0.0464
"GGAGCCGGCCUAGGAUAUUUCAUAAAACAACAUGAGGAUCACCCAUGUAGGCCAGAAGGCCUUGGGAAGAAGGAGGUCGGCUCC [Loop Effect - C28] (Eterna round: R96, puzzle: Same State NG 2)",0.0102,0.0197,0.0284,–,–,–
"GGAGCCGGCCUAGGAUAUUUCAUACAAAAACAUGAGGAUCACCCAUGUAGGCCAGAAGGCCUUGGGAAGAAGGAGGUCGGCUCC [Loop Effect - C25] (Eterna round: R96, puzzle: Same State NG 2)",0.0145,0.0169,0.0342,–,–,–
"GGAGCCGGCCUAGGAUAUUUCAUAUAAAUACAUGAGGAUCACCCAUGUAGGCCAGAAGGCCUUGGGAAGAAGGAGGUCGGCUCC [Loop Effect - U25,U29] (Eterna round: R96, puzzle: Same State NG 2)",0.013,0.0204,0.0315,–,–,–
"GGAGCCGGCCUAGGAUAUUUCAUUAAUAAACAUGAGGAUCACCCAUGUAGGCCAGAAGGCCUUGGGAAGAAGGAGGUCGGCUCC [Loop Effect - U24,U27] (Eterna round: R96, puzzle: Same State NG 2)",0.0212,0.0245,0.0377,–,–,–
GGAGCCGGUACUGAGGAUAUUCAUUUUAAAACAUGAGGAUCACCCAUGUAGGCCAGAAGGCCUUGGGAGAAGGCAGACCAGCUCG [Atgexeedri - 6] (puzzle: Same State 2),–,–,–,0.217,0.0209,0.369
GGAGCCGGUACUGAGGAUAUUCGUAUUAAAACAUGAGGAUCACCCAUGUAGGCCAGAAGGCCUUGGGAGAAGGCAGACCAGCUCG [Atgexeedri - 5] (puzzle: Same State 2),–,–,–,0.026,0.0143,0.0405
GGAGCCUGCACUGAGGAUAUUCAUAGUGUAACAUGAGGAUCACCCAUGUGUCGCCGUAGCGACUGGGAGAAGGCAGUGCGGCUCG [JL-ss2-3.06 ViennaUCT mod] (puzzle: Same State 2),–,–,–,0.18,0.0384,0.325
GGAGCCUGCACUGAGGAUAUUCAUAUUUAAACAUGAGGAUCACCCAUGUAGGCCAGAAGGCCUUGGGAGAAGGCAGGUCGGCUCG [salish99_ss2_r3_083] (puzzle: Same State 2),–,–,–,0.372,0.0353,0.78
GGAGGACAUGAGGAUCACCCAUGUGGAUGAUCGCUAGGAUAUGCGUAAAGGAGGAGUGGUGCAGAAGGAGUGGGAU [JR_SS1_Sub050] (puzzle: Same State 1),–,–,–,0.261,–,–
